# From the nanobody polyreactivity screen of Harvey et al. (2022)
# Assay: yeast display, Sf9 membrane polyspecificity reagent, FACS + sequencing; frameworks hold sequencing errors
# In short: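 Nanobodies from a synthetic yeast display library (Saccharomyces cerevisiae BJ5465), induced 36–48 hours with galactose, were stained 1 hour at 4 °C with 10% biotinylated, detergent-solubilized Sf9 membrane reagent, enriched on streptavidin microbeads, then FACS-sorted. Anti-HA (expression) and streptavidin (reagent binding) fluorescence set low and high (top ~1%) gates. Polyreactivity labels come from the gate of origin. Genes were colony-PCR amplified, MiSeq 2 × 250 sequenced and filtered by CDR length.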
row,Sequence,polyreactivity (PSR sort gate)
1,QVQLVESGGGLVQAGGSLRLSCAASGRIFGYYAMGWYRQAPGKERELVAGIDWSGGNTYYADSVKGRFTISRDNAKNTVYLQMNSLKPEDTAVYYCNTEGGRDTAWYDYWGQGTQVTVSS,low polyreactivity
2,QVQLVESGGGLVQAGGSLRLSCAASGSTFSRNAMGWYRQAPGKERELVAAITLRGTNTYYADSVKGRFTISRDNAKNTVYLQMNSLKPEDTAVYYCAALRRGSGRYDMDYWGQGTQVTVSS,high polyreactivity
3,QVQLVEAGGGLVQAGGSLRLSGAASGYTFGGNAMGWYRPAPGKERELVAGITWTGGTTYYADSVKGRFTISRDNAKNTVYLQMNSLKPEETAVYYCNASLDSQDGDYWGQGTQVTVSS,low polyreactivity
4,QVQLVESGGRLVQAGGSLRLSCAASGITLNRNAMGWYRQEPGKESELVARISRRGGTTYYADSVKGRFTISRYYAKNTVYLQMNSLKPEDTAVYYCAASYSDRKLTDYWGQRTQVTVSS,high polyreactivity
5,QVQLVESGGGLVQAGGSLRLSCAASGIIFWWYAMGWYRQAPGKERELVAAISGTGGSTYYADSVKGRFTISRDNAKNTVYLQMNSLKPEDTAVYYCAKRASPFWRGYDSWGQGTQVTVSS,low polyreactivity
6,QVQLVESGGGLVQAGGSLRLSCAASGFTLGFYAMGWYRQEPGKERELVAAINWRGGSTYYADSVKGRFTISRDNAKNTVYLLMNSLKPEDTAVYYCNRVYRPSRYDYWGQGTQVTVSS,high polyreactivity
7,QVQLVESGGGLVQAGGSLRLSCAASGRTFWQYSMGWYRQAPGKERELVAAITSSGGSTYYADSVKGRFTISRDNAKNTVYLQMNSLKPEDTAVYYCAADTRYYRYYYWGQGTQVTVSS,high polyreactivity
8,QVQLVESGGGLVQAGGSLRLSCAASGLTFSFYAMGWYIPAPGKDTERVAAISSGGGITYYADSVKGRFTISRDNAKNTVYLQMNSLKPEDTALYYCNTDDYYQYWVPSEYYYCGQGTQVTVSS,low polyreactivity
9,QVQLVESGGGLVQAGGSLRLSCAASGSIFVRNVMGWYRQAPGKERELVAGISWNGGSTFNADSVKGRFTISRDNAKNTVYLQMNSLKQEDTAVYYCAARGRHSGYYSFPYYYWGQGTQVTVSS,low polyreactivity
10,QVQLVESGGGVVQAGGSLRLSCAASGRTFRRNAMGWYRQAPGKERELVAAITSSGGSTYYADSVKGRFTISRDNAKNTVYFQMNSLKPEDTEVYYCNAFYTGRSAPDSWGQGTQVTVSS,high polyreactivity
11,QVQLVESGGGLVQAGGSLRLSCAASGSIFTYYAMGWYRQAPGKERELVAAISWNGGTTYYADSVKGLFTISRDNAKNTVYLQMNSLKPEDTAVYYCNKDGSYRYDYWGQGTQVTVSS,low polyreactivity
12,QVQHVESGGGLVQAGGSLRLSCAASGRIFRGYAMGWYRQAPGKERELVAVISYSGTRTYYADSVKGRFTISRDNAKNTVYLQMNSLKPEDTAVYYCNARANGFKDGYWGQGTQVTVSS,high polyreactivity
13,QVQLVESGGGLVQAGGSLRLSCSASGYIFDYNAMGWYIQAPGKERELVAAITFRDGSTYADSVKGRFTISRDNAKNTVYLQMNSLKPEDTAVYYCNRRSQVHSHSKHDYWGQGTQVTVSS,low polyreactivity
14,QVQLVESGGGLVQAGGSLRLSCAASGFTFYDNAMGWYRQAPGKERELVAAISWSGGSTYADSVKGRFTISRDNAKNTVYVQMNSLKPEDTAVYYCNADAWLASGYRYDYWGQGTQVTVSS,low polyreactivity
15,QVQLVESGGGLVQAGGSLRLSCAASGSIFWRNAMGWYRQAPGKERELVAAITSGGTTNYADSVKGRFTISRDNAKNTVYLQMNSLKPEDTAVYYCATGASYLRRYDHPHSDVDYWGQGTQVTVSS,low polyreactivity
16,QVQLVESGGGLVQAGGSLRLSCAASGGIFSLYAMGWYRQAPGKERELVAAISRRGTITYYADSVKGRFTISRDNAMNTVYLQMNSLKPEDTAVYYCAALWHAVFYADYDYWGQGTQVTVSS,high polyreactivity
17,QVQLVDSGGGLVQAGGSLRLSCAASGSTFALYAMGWYRQAPGKERELVAAITWSGTGTYYADSVKGRFTISRDNAKNTVYLQMNSLKPEDTAVYSCNAEYWWWGLGNDYWGQGTQVTVSS,low polyreactivity
18,QVQLVESGGGLVQAGGSLRLSCAASGIIFRGNAMGWYRQAPRKEREFVAAISLRGSRTYYADSVKGRFTISRDNAKNTVYLQMNSLKPEDTAVYYCNARGGPSPFGSDYWGQGTQVTVSS,high polyreactivity
19,QVQLVESGGGLVQAGGSLRLTCAASGSTLYWKAMGWYRQAPGKERELVASITSSGGSTYYADSVKGRFTISRDNAKNTVYLQMNSLKPEDTAVYDCATESWWRYSEYYYWGQGSQVTVSS,low polyreactivity
20,QVQLVESGGGLVQAGGSLRLSCAAYGLIFPVYAMGWYRQAPGKEREFVASIWRGGTTYYADSVKGRFTISRDNAKNTVYLQMNRLKPEDTAVYYCAARYYPRGLVFPFTKYDYWGQGTQVTVSS,high polyreactivity
21,QVQLVESGGGLVQAGGSLRLSCAASGRTLRWYTMGGYRQAPGEERELVAAISSSGGSTYYADSVKGRFTISRDNAKNTVYLQMNSLKPEDTAVYYCARDRRLREYDYWGQGTQVTVSS,low polyreactivity
22,QVQLVESGGGLVQAGGSLRLSCAASGNTLDWYAMGGSRQAPGKERELVAAISSAGSTSYADSVKGRFTISRDNAKNTVYLQMNSLKPEDTAVYYCNVDVYSKDANFQSFASEYDYWGQGTQVTVSS,low polyreactivity

row,Sequence,polyreactivity (PSR sort gate)
1,QVQLVESGGGLVQEGGSLRLSCAASGSIFYNAMGWTRQAPGKERELVAAISSRGASTYYADSVKGRFTISRDNAKNTVYLLMNSLKPEDTAVYYCAKDNRYPYPSGLDYWGQGTQVTVSS,high polyreactivity
2,QVQLVESGGGLVQAGGSLRLSCAASGRIFGRYAMGWYRQAPGKEREFVAAISKRGGGTYYADSVKGRFTISRDNAKNTVYLQMISLKPEDTAVYYCAVDNSPGFDDYDYWGQGTQVTVSS,high polyreactivity
3,QVQLVESGGGLVQAGGSLRLSCAASGRTFVNYALGWYRQAPWKERELVAGISSDGSTYYADSEKGRFTISRDNAKNTVYLQMNSLKPEDTAVYYCATEIRITGLYRYDYWGQGTQVTVSS,low polyreactivity
4,QVQLVESGGGLVQAGGSLRLSCAASGSTFGYYAMGWYRQAPGKERELVAAISWSGGSTYYADSVKGRFTISRDNAKNTVYLQMNSLKPEDTAVYYCNKVRGKTYYGEGDYWGQGTQVTVSS,high polyreactivity
5,QVQLVESGGGLVQAGGSLRLSCAASGLNFARNAMGWYRQAPGKERELVAAISSSGNTYADSVKGRFTISRDNAKNTVYLQMNSLKPEDTAVYYCAADYVRWGQRKRSRYYYWGQGTQVTVSS,high polyreactivity
6,QVQLVESGGGLVQAGGSLRLSCAASGSIFESYVMGWYRQAPGKERELVAAISYTGDDTYYADSVKGRFTISRDNAKNTVYLQMNSLKPEDTAVYYCNADNYYYYPWYVRALDSWGQGTQVTVSS,low polyreactivity
7,QVQLVESGGGLVQAGGSLRLSCAASGSTFTLYAMGWYRQAPGKERELVATITGSGGSTNYADSVKGRFTISRDNAKNTVDLQMNSLKPEDTAVYYCAKRVQQSTWYGYGIGYEYWGQGTQVTVSS,high polyreactivity
8,QVHHVESGGGLVQAGGSLRLSCAASGRIFSYYAMGRYRPAPGKERELVAAITSRGTRTYYADSVKGRFTISRDNAKNTVYLQMNSLKPDDTAVYYCNVVSDIRLYFRFAYDYWGQGTQVTVSS,high polyreactivity
9,QVQLVESGGGLVQAGGSLRLSCAASGSTFYYNAMGWYRQAPGKERELVARISRSGGSTYADSVKGRFTISRDNAKNTVYLQMNSLKPEDTAVYYCNADAYGTPEFTSYAVRYDYWGQGTQVNVSS,low polyreactivity
10,QVQLVESGGGLVQAGGSLRLSCAASGIIFFEYVMGWYRQAPGQERELVAAINRSGGRTYYADSVKGRFTISRDNAKNTVYLQMNSLKPEDTAVYYCAAEHYTGSGGYDYWGHGTQVTVSS,high polyreactivity
11,QVQLVESGGGLVQAGGSLRLSCAASGSIFRRNAMGWYRQAPAKERDLVAAISVRGGSTYYAYSVKGRFTISRDLAKNTVYLQMISLKPEDTAVYYCAADEFDDYDWYRGYDSTYDYWGQGTQVTVST,low polyreactivity
12,QGQLVESGGVLVQAGGSLRLSCAASGSIIQPYAMGWYRQAPGKERELVAAISRGGTTYYADSVKGRFTISRDNAKNTVYLQMNSLKPEDTAVYYCAVKGYRYGTRYDYWGQGTQVTVSS,high polyreactivity
13,QVQLVESGGALVQAGGSLRLSCAASGRIFIVYAMRWYRQAPGKERELVASITSGASTNYADSVKGRFTISRDNAKNTVYLQMNSLKPEDTAVYDCNADGPGAYLSEFGYWGQGTQVTVSS,low polyreactivity
14,QVQLVESGGGLVQAGGSLRLSCAASGSTFSGNAMGWYRQAPGKERELVAAITSSGGSTYYADSVKGRFTISRDNAKNTVYLQMNSLKPEDTAVYYCAAKSRRTRRSYYWGQGTQVTVSS,high polyreactivity
15,QVQLVESGGGLVQAGGSLRLSCAASGFIFGPYAMGWYRTAPGKERELVAAITYSSGSTYYADSVKGRFTISRDNAKNTVYLQMNSLKPEDTAVYYCNAEFWYETLYEYDYWGQGTQVTVSS,high polyreactivity
16,QVQLVESGGGLVQAGGSLRLSCAASGRIFRLYAMGWYRQAPGKERELVAAIRASGGNTYYADSVKGRFTISRDNAKNTVYLQMNSLKPEDSAVYYCAADYWSRYYTVPEWYNYWGQGTQVTVSS,high polyreactivity
17,QVQLVESGGGLVQAGGSLRLSCAASGRIFKSNAMGWYRQAPGKERELVASITASGGRTYYADSVKGRFTISRDNAKNTVYLQMNSLKPEDTAVYYCAAGRPFSKYGYWGQGTQVTVSS,high polyreactivity
18,QVQLVESGGGLVQAGGSLRLSCAASGHIFFYYTMGWYSPAPGKERELVAGITIGGSTNYADSVKGRFTISRDNAKNTVYLQMNSLKPEDTAVYYCNVVKYVYIYSYWEYYYWGQGTQVNVSS,low polyreactivity
19,QVQLVESGGGLVQAGGSLRLSCAASGFIFGNNDMGWYRPAPGKERELVAAISNSGGRTYYADSVKGRFTISRDNAKNTVYLQMNSLKPEDTAVYYCAKAYRPPGYDSWGQGTQVTVSS,high polyreactivity
20,QVQLVESGGGLVQAGGSLRLSCAASGRIFRVYAMGWYRQAPGKERELVASISSGGSTNYADSVKGRFTISRENAKNTVYLQMNSLKPEDTAVYYCAADYWYRLFWYYGAPLDYWGQGTQVTVSS,low polyreactivity
21,QVQLVESGGGLVQAGGSLRLSCAASGITFRFNAMGWYRQAPGKEREFVAAITYSGDSTYYADSVKGRFTISRDNAKNTVYLQMNSLKPEDTAVYYCAADYYAISRRIFYYWGQGTQVTVSS,low polyreactivity
